Assay results reported in patent US20120058118A1 (Boehringer Ingelheim, published 2012).
Like-named read-outs stand apart in the source and are kept apart here.

Columns and labels:
[1] = biological target: T1, human A-beta(1-40) peptide, monomeric (BAM) (human, biotin at the C-terminus in capture ELISA, SPR and TR-FRET; not biotinylated where coated directly (Example 7)); test: ABII050 TR-FRET competition assay
T1 construct: synthetic peptide (Anaspec), TFA/HFIP treated to give monomer; also called monomeric A-beta

[2] = biological target: T2, pGlu-A-beta(1-28), C-terminally biotinylated (human, pyroglutamate formed from the glutamate at position 3 (N-terminus); biotin at the C-terminus); test: SPR on captured C-terminally biotinylated pGlu-A-beta(1-28), 1:1 model
T2 construct: printed as pGlu-A-beta(1-28), while the text says that the first two N-terminal residues are missing; range 3-28 is my reading; also called pyroglutamyl-Abeta
T2 sequence (peptide, as listed by the source): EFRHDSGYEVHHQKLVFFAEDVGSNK
Description: Association and dissociation curves can be fitted using a 1:1 interaction model and an accurate KD value can be determined.

[3] = biological target: T3, A-beta(1-28) peptide (human); test: KinExA, A-beta(1-28) in solution; PEGylated ABII322
T3 construct: Anaspec peptide, solution antigen in KinExA
T3 sequence (peptide, as listed by the source): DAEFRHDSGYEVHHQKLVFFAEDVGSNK
Protocol: The KinExA experiments are conducted with a KinExA 3000 and the KinExA Pro software (Sapidyne Instruments Inc., USA) at room temperature (ca. 21° C.). PBS with 0.02% NaN₃ is used as running buffer. For all experiments, antigen is serially diluted into PBS with 0.1% BSA and 0.02% NaN₃ having a constant VHH concentration. The mixtures of antigen and VHH are incubated for 24 h at room temperature prior to measurement. The flow rate of the samples and the labeling antibody for all experiments is 0.25 ml/min.
This antibody is used at a volume of 500 μl and a concentration of 0.5 μg/ml in PBS with 0.1% BSA and 0.02% NaN₃.
The equilibrium titration data are fit to a 1:1 binding model using KinExA Pro software Version 1.0.3 (Sapidyne Instruments Inc., USA). […] The sample volume is 5 ml each. […] The sample volume is 11 ml each.

[4] = biological target: T1, human A-beta(1-40) peptide, monomeric …; test: ABII002 TR-FRET competition assay
[5] = biological target: T1, human A-beta(1-40) peptide, monomeric …; test: cell-based or functional assay
[6] = biological target: T1, human A-beta(1-40) peptide, monomeric …; test: SPR on captured biotinylated A-beta(1-40)
[7] = biological target: T1, human A-beta(1-40) peptide, monomeric …; test: 42D4 TR-FRET assay (labelled ABII42D4)
[8] = biological target: T1, human A-beta(1-40) peptide, monomeric …; test: TR-FRET competition, labelled ABII60A10
[9] = biological target: T1, human A-beta(1-40) peptide, monomeric …; test: SPR, captured C-terminally biotinylated A-beta(1-40)
[10] = biological target: T1, human A-beta(1-40) peptide, monomeric …; test: TR-FRET competition
[11] = biological target: T4, aggregated A-beta(1-40) peptide (BAA) (human); test: BAA ELISA
T4 construct: also called A-beta peptide aggregates

[12] = biological target: T1, human A-beta(1-40) peptide, monomeric …; test: BAM ELISA
[13] = biological target: T1, human A-beta(1-40) peptide, monomeric …; test: BAM ELISA; remark: listed apart in the source
[14] = biological target: T1, human A-beta(1-40) peptide, monomeric …; test: 60A10 TR-FRET assay (labelled ABII60A10)
[15] = biological target: T4, aggregated A-beta(1-40) peptide (BAA); test: BAA ELISA; remark: listed apart in the source

IC50 [1]	Kd [2]	Kd [3]	IC50 [4]	Aggregation inhibition (% inhibition at 26 µM) [5]	koff [6]	IC50 [7]	IC50 [8]	Kd [9]	IC50 [10]	EC50 [11]	EC50 [12]	EC50 [13]	IC50 [14]	EC50 [15]	Binder
0.17 nM	1 nM	0.6 pM	0.14 nM	–	–	–	–	–	–	–	–	–	–	–	ABII322-PEG40 (designed binder, PEG40 on the Cys at position 14 of the 27GS linker, 059-27GSC-035; also called PEGylated ABII322 VHH construct; biparatopic PEGylated VHH ABII322) VQLLESGGGLVQPGGSLRLSCAASGRTFNNYNMGWFRQAPGKGREFVAAVSRSGVSTYYADSVKGRFTISRDNSKNTVYLQMNSLRPEDTAVYYCAAAYRGTAINVRRSYSSWGQGTLVTVSSGGGSGGGGSGGGGCGGGGSGGGGSGGGEVQLLESGGGLVQPGGSLRLSCVHSGPTFRTDTMGWFRQAPGKGREFVAAVTWNSGRINYADSVKGRFTISRDNSKNTAYLQMNSLRPEDTAVYYCAAHRFVVGGNRVEDWRYWGQGTLVTVSS
0.52 nM	–	–	–	82%	4e-05 s⁻¹	> 1000 nM	0.52 nM	0.3 nM	0.52 nM	1.8 nM	1.8 nM	1.8 nM	2.3 nM	1.8 nM	Fab fragment of monoclonal antibody m266 (Fab, V domains shown, also called Fab266; m266Fab) VH: EVKLVESGGGLVQPGGSLKLSCAVSGFTFSRYSMSWVRQTPEKRLELVAQINSVGNSTYYPDTVKGRFTISRDNAEYTLSLQMSGLRSDDTATYYCASGDYWGQGTTLTVSS VL: DVVMTQTPLSLPVSLGDQASISCRSSQSLIYSDGNAYLHWFLQKPGQSPKLLIYKVSNRFSGVPDRFSGSGSGTDFTLKISRVETEDLGVYFCSQSTHVPWTFGGGTKLEIK
